Values joined by “and” are separate entries in the source; they are usually repeats but may differ in a detail not shown here. Identical values can stand only once.
How the values were obtained:
Format in all cases: physicochemical, human
[1] = nESI-MS relative populations of oligomeric forms; details: 150 mM ammonium acetate
Experimental: Prior to MS analysis, samples were buffer exchanged into 150 mM ammonium acetate, pH 7.4, using Micro Bio-spin 6 columns (Bio-Rad, Digilab Division, Cambridge, MA, USA). For all the experiments protein concentrations ranging from 6 to 18 µM were used. In the case of the substrate binding experiments, proteins were analyzed in the presence of a 1: 1 molar ratio of the NR peptide; this substrate concentration, lower than in the SEC experiments, was chosen to ensure adequate resolution of the various charge state series, which is critical for unambiguous assignment of substrate-bound states. Due to suppression effects during nESI ionization, a relatively limited set of molar ratios could be investigated by in this way.
nESI-MS spectra were obtained according to a previously published protocol on an orthogonal time-of-flight mass spectrometer with a Z-spray source (LCT, Waters, Manchester, UK) in positive ion mode using the following parameters: capillary voltage, 1500 V; sample cone voltage, 120 V (unless otherwise specified); extraction cone voltage, 1V; and ion transfer stage pressure, 8.8 mbar. Spectra were calibrated externally using a 33 mg/ml solution of cesium iodide. Data were acquired and processed with MassLynx software (Waters, Manchester, UK), and are shown with minimal smoothing and without background subtraction. The relative abundances of the different oligomeric states were estimated from the intensities of the most abundant charge states for each construct and are expressed as a percentage of the total intensity.

[2] = Analytical SEC relative populations of oligomeric forms; details: for Dimer population / Monomer population / Total oligomer population: Superdex 75, 4 °C, 50 mM Tris pH 7.4, 150 mM KCl
Experimental: (§1) Analytical SEC was performed at 4 °C using a Superdex 75 10/300 GL column (GE Healthcare LifeSciences, Little Chalfont, U.K.), which had previously been calibrated using a mixture of standard proteins (Gel Filtration LMW Calibration Kit; GE Healthcare LifeSciences, Little Chalfont, U.K.). Typically, samples of the various constructs contained 70 µM of protein in 50 mM Tris buffer at pH 7.4, with 150 mM KCl, 5 mM MgCl2 and were incubated for 15 min (unless otherwise specified) at room temperature before being loaded onto the column for analysis. To evaluate the reversibility of the oligomerization process, the different elution peaks obtained for each protein variant were subsequently analyzed after concentrating the different fractions using AmiconUltra-0.5, Ultracel-3 Membrane, 3 kDa (Millipore, Bedford, MA, USA). A similar analysis was also performed at 6 µM concentration for all the protein variants to allow for a direct comparison between the results obtained by SEC and MS experiments.
The influence of substrate binding on the oligomerization properties of all the variants was examined by using the well-characterized Hsp70 substrate, the NR peptide (NRLLLTG, Genemed Synthesis Inc., San Antonio, TX, USA). A 14-fold excess of the peptide was added in each case to a fresh protein sample, incubated for 1 h at room temperature, unless otherwise specified, and then loaded onto the Superdex 75 10/300 GL column for analysis. The relative quantities of the different protein species were estimated by analysing the chromatographic profile using a Gaussian function for each elution peak (OriginPro 8, Originlab, Northampton, MA, USA) and measuring the relative area under each peak.

[3] = Thermal denaturation monitored by far-UV CD
Experimental: Protein structural stability was analyzed by monitoring the CD signal at 222 nm upon thermal denaturation. Thermal runs were performed from 5 to 90 °C at a rate of 1 °C. min^-1. Data points were acquired every 0.1 °C with a response time of 2 s and a bandwidth of […]. After thermal denaturation, each protein sample was cooled to the starting temperature, and a second denaturation curve recorded in order to analyse the degree of reversibility of the denaturation process. Analysis of the thermal unfolding curves was performed assuming a three-state unfolding model.

[4] = Tryptophan (W580) fluorescence emission; details: W580, excitation 295 nm
Experimental: Steady-state tryptophan fluorescence emission spectra of native, thermally denatured and refolded proteins were recorded from 300 to 400 nm, selectively exciting the only tryptophan residue in the SBD (W580) at 295 nm, using a Cary Eclipse spectrofluorimeter (Varian, Palo Alto, CA, USA). Excitation and emission band-passes were set to 5 nm each.

[5] = SEC/DLS of oligomeric species; details: SEC, 20 µM SBD641
Experimental: as §1, with “A similar analysis was also performed at 6 µM concentration for all the protein variants to allow for a direct comparison between the results obtained by SEC and MS experiments.” left out
Dynamic light scattering. Representative size distributions of SBD641 at different protein concentrations in Tris 50 mM, pH 7.4, 150 mM KCl, 5 mM MgCl2 were recorded at 25 °C on the Zetasizer Nano ZS instrument (Malvern Instruments Ltd.) at 633 nm after 1 h of incubation at room temperature. […] Some samples were analyzed after 1 h and 4 h incubation at room temperature and the same intensity size distributions were obtained. The samples were centrifuged for 15 min at 13200 rpm to remove dust particles and the scattered light was detected at an angle of 173°. […]

[6] = 6-15 µM protein, pH 7.4, estimated error 5% (SD of 3-4 independent experiments)
[7] = 70 µM protein, 5 mM MgCl2, 15 min at room temperature, estimated error 3.5% (SD of 3-4 independent experiments)
[8] = 6-15 µM protein, 5 mM MgCl2, estimated error 3.5% (SD of 3-4 independent experiments)

In the case of “SBD641: truncated human Hsp70 (384-641), full-length SBD with interdomain linker”, the Dimer population [1, 6] is reported as 40%, the Monomer population [1, 6] is reported as 46% and the Total oligomer population [1, 6] is reported as > 50% and 54%. For the same substance, the Trimer population [1, 6] was 12%, the Tetramer population ([1]; low μM protein, pH 7.4) was 2% and the Dimer population [2, 7] was 55%. The Monomer population [2, 7] was 23%, the Total oligomer population [2, 7] was 77% and the Dimer population [2, 8] was 44%. The Monomer population [2, 8] was 37%, the Total oligomer population [2, 8] was > 50% and 63% and the “Monomeric fraction, native protein” value ([2]; native SBD641, comparison with refolded) was 37%. The “Monomeric fraction, refolded protein” value ([2]; refolded after thermal denaturation) was 71%, the “∆Hm, 1st transition” value ([3]; CD 222 nm, 20 µM protein, 7 mM Tris pH 7.4, 170 mM KCl, 5 mM MgCl2, three-state fit (C-term two-state), SE of fit) was 49.4 ± 3.3 kcal/mol and the “∆Hm, 2nd transition” value ([3]; CD 222 nm, 20 µM protein, 7 mM Tris pH 7.4, 170 mM KCl, 5 mM MgCl2, three-state fit, SE of fit) was 53.3 ± 1.2 kcal/mol. For the same substance, the “Tm, 1st transition” value ([3]; CD 222 nm, 5 to 90 °C at 1 °C/min, 20 µM protein, 7 mM Tris pH 7.4, 170 mM KCl, 5 mM MgCl2, three-state fit (C-term two-state), SE of fit) was 45.6 ± 0.4 °C, the “Tm, 2nd transition” value ([3]; CD 222 nm, 5 to 90 °C at 1 °C/min, 20 µM protein, 7 mM Tris pH 7.4, 170 mM KCl, 5 mM MgCl2, three-state fit, SE of fit) was 73.1 ± 0.1 °C and 73.1 ± 0.2 °C and the “Degree of irreversibility of overall protein thermal denaturation” value ([3]; far-UV CD) was “ca. 20%”. The “Reversibility of thermal unfolding” value ([3]; far-UV CD, second denaturation curve after cooling) was “is not”, the “Wavelength of fluorescence emission maximum, native” value [4] was 340 nm and the “Wavelength of fluorescence emission maximum, refolded” value [4] was 345 nm. The “Wavelength of fluorescence emission maximum, thermally denatured” value [4] was 350 nm and the “Oligomer fraction, no NR peptide” value [5] was “ca. 0.7”.

— paper PMC3696110, “Hsp70 Oligomerization Is Mediated by an Interaction between the Interdomain Linker and the Substrate-Binding Domain” (PLoS ONE, 2013)
